The experiment addresses recombinant full-length SARS-CoV-2 spike protein with a C-terminal 8x His-tag (SARS-CoV-2) (UniProt P0DTC2). The experiment can be described thus: BLI; spike with C-terminal 8x His-tag (0.35 μM) immobilised on nickel nitrilotriacetic acid biosensors; αIIbβ3 in solution, zero to 0.51 μM (68 to 512 nM); 20 mM tris pH 7.4, 137 mM NaCl, 1 mM MgCl2, 1 mM MnCl2, 1 mM CaCl2, 50% glycerol plus 1X Octet Kinetics Buffer; 25 °C; global fit. A general note: BLI is a label-free optical method that tracks binding on a fibre tip over time.

In the case of “platelet-derived purified human αIIbβ3 protein (from UniProt P05106 27-788) (complex)”, the Kd is 47 nM.

One may read the Kd as a measure of binding affinity in units of concentration.

Source of the values: publication PMC10202384.
